Results: patent US20190390248

Target: human prothrombin (UniProt P00734)

carinactivase-2 from Echis carinatus venom
percent of S-2238 hydrolysed by the thrombin formed: followed by carinactivase-2 (2.5%) | Thrombin generation rate (scale: nmol thrombin/mL/min/µmol prothrombin/µmol activator): 1.91
